Laboratory results: patent US20030129189A1, “Tumor necrosis factor-gamma” (priority 1994, published 2003)

Assays:
[1] = tested on: adult bovine aortic endothelial (ABAE) cells; assay: In vitro angiogenesis assay (capillary-like tubes on collagen gels); assay type: cell-based; details: control
TNF-gamma-beta [2] = target: T1, TNF-gamma-beta (Homo sapiens, UniProt O95150); assay: Coimmunoprecipitation of TNF-gamma-beta by TNFR-Fc proteins; assay type: binding
T1 construct: made in house; host or cells: 293T cells, transient transfection
T1 sequence (O95150 72-251 limits assumed): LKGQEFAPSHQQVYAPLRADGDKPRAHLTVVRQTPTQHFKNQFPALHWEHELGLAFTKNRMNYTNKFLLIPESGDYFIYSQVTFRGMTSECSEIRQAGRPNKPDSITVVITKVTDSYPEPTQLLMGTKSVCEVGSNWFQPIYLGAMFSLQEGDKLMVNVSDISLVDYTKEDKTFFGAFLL
Description: The beads were then precipitated and washed extensively with PBST buffer (PBS, 0.5% Triton X-100) before boiled in SDS-sample buffer. Proteins were resolved on 4-20% Tris-Glycine gels (NOVEX), transferred to nitrocellulose membranes, and blotted with anti-Flag M2 monoclonal antibody (1 microgram/ml, Sigma) andhorseradish peroxidase (HRP)-conjugated goat anti-mouse IgG antibody (0.5 microgram/ml).

TNF-gamma-beta [3] = target: T2, TNF-gamma-beta (Homo sapiens, UniProt O95150); assay: Inhibition of TNF-gamma-beta-mediated IFNγ secretion from T cells; assay type: cell-based; details: costimulated T cells
T2 construct: made in house; host or cells: E. coli (untagged) or 293T (FLAG-tagged)
T2 sequence (O95150 72-251): T1 sequence (O95150 72-251 limits assumed)
Experimental: The extent of the increase in IL-2 receptor expression is consistent with the moderate increase in IL-2 responsiveness compared with IL-2 itself.
1×10^5 cells/ml of purified T cells were seeded in a 24-well tissue culture plate that had been coated with anti-CD3 (0.3 microgram/ml) and anti-CD28 (5.0 microgram/ml) overnight at 4° C. […] ELISA assay for IFNγ, GM-CSF, IL-2 IL-4, IL-10 and TNFα were performed using kits purchased from R & D Systems. Recombinant human IL-2 (5 ng/ml) was used as a positive control. All samples were tested in duplicate and results were expressed as an average of duplicate samples plus or minus error.

TNF-gamma-beta [4] = target: T2, TNF-gamma-beta; assay: Inhibition of TNF-gamma-beta activation of NF-κB in 293T cells; assay type: cell-based
Experimental: To avoid spontaneous apoptosis or NF-κB activation accompanied with DR3 overexpression, a limited amount of DR3-expression DNA that by itself minimally activated these pathways was used.
293T cells were transiently transfected using LipofectAMINE and PLUS reagents according to the manufacturer's instruction (Invitrogen). For reporter assays, 293T cells, at 5×10^5 cells/well, were seeded in 6-well plates and transfected with a total of 1 microgram of DNA. pC4 DNA was used as filler DNA. Conditioned supernatant was collected 24 hr post-transfection and assayed for secreted alkaline phosphatase (SEAP) activity using the Phospha-Light™ chemiluminescent reporter gene assay system (Tropix). pCMV-lacZ was used as internal control for transfection efficiency normalization.

[5] = tested on: TNF-gamma on the cell surface; assay: FACS analysis of receptor-ligand binding on cells
Experimental: Consistent with the Northern blot analysis, peripheral blood mononuclear cells (PBMC) and human umbilical vein endothelial cells (HUVEC) express TNF-gamma on the cell surface by immunostaining with antibody to TNF-gamma. [Cells were collected by trypsinization or aspiration, and centrifuged at 1500-2000 rpm for 5 min. The cell pellets were resuspended and washed in 5 ml ice-cold PBS twice. The cells were incubated for 30 min at […] with antibody (10 mg/ml ) to TNF-gamma to detected expression of TNF-gamma on cell surface, with DR3-Fc or LTbR-Fc (10 mg/ml) for receptor and ligand binding in the binding buffer (HBSS containing 10% BSA, 20 mM HEPES, pH 7.2, 0.02% NaN3). […] Fluorescence was analyzed by a FACscan flow cytometer (Becton Dickinson, Mountain View, Calif.).] […] After incubation at 37° C. for 72 hr, the NF-kB activity was measured with luminometer at absorbance of 450 nm.]
Cells were collected by trypsinization or aspiration, and centrifuged at 1500-2000 rpm for 5 min. […] The cells were incubated for 30 min at 40° C. with antibody (10 mg/ml ) to TNF-gamma to detected expression of TNF-gamma on cell surface, with DR3-Fc or LTbR-Fc (10 mg/ml) for receptor and ligand binding in the binding buffer (HBSS containing 10% BSA, 20 mM HEPES, pH 7.2, 0.02% NaN3). […] Fluorescence was analyzed by a FACscan flow cytometer (Becton Dickinson, Mountain View, Calif.).

TNF-gamma-beta [6] = target: T2, TNF-gamma-beta; assay: Inhibition of TNF-gamma-beta induced caspase activation in TF-1 cells; assay type: cell-based; details: presence of cycloheximide
Experimental: Briefly, cells growing in microtiter plates are induced to undergo apoptosis, causing an activation of caspase activities. Equal volume of a caspase substrate (Asp-Glu-Val-Asp-Rhodamine 110, or DEVD-R110) solution is then added and incubated for at least 1 hour. During this incubation, cells are being lysed and free R110 is released from the substrate. The level of free R110 is determined fluorimetrically, using a fluorescence reader with excitation filter 470-500 nm and emission filter 500-560 nm.
A black 96-well plate with a clear bottom is seeded with 75,000 TF-1 cells in RPMI containing 1% fetal bovine serum and micrograms/milliliter cyclohexamide. […] Following the manufacturer's directions, an equal volume of 1×substrate solution containing 50 micromolar DEVD-R110 diluted in incubation buffer is added to each well. The 96-well plates are then incubated for 2 hours after which the plate is read in a fluorescence reader with an excitation filter at 485 nm and an emission filter at 535 nm.
These solutions were then incubated for 1 hour at room temperature.
The reagents were incubated for 1 hour at RT to allow the formation of protein-TNF-gamma-beta complexes and then added to the cells. Caspase activity was measured as described above.

TNF-gamma-beta [7] = target: T3, TNF-gamma-beta (Homo sapiens, UniProt O95150); assay: FACS binding of receptor-Fc proteins to cells expressing full length TNF-gamma-beta
T3 construct: expressed in transfected cells
T3 sequence (O95150 1-251): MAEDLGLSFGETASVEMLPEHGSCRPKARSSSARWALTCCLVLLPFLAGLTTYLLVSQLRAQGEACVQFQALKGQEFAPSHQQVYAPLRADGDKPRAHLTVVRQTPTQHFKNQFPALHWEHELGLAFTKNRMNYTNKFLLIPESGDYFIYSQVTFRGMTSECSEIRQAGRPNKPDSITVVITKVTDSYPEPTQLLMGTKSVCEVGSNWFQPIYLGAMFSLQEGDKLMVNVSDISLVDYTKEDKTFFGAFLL
Experimental: These cells were used to screen the Fc-fusion form of the extracellular domain of TNFR family members, including TNFR1, Fas, HveA, DR3, DR4, DR5, DR6, DcR1, DcR2, TR6, OPG, RANK, AITR, TAC1, CD40, and OX40. […] TR6 has been previously described as a decoy receptor (Pitti et al., Nature 396:699-703 (1998); Yu et al., J. Biol. Chem. 274:13733-6 (1999)) capable of competing with Fas and HveA for binding of FasL and LIGHT, respectively.
Cells resistant to 0.5 mg/ml Genticin (Invitrogen) were selected and expanded. Expression of TNF-gamma-beta mRNA was confirmed by quantitative RT-PCR analysis and surface expression of TNF-gamma-beta protein confirmed by FACS analyses using TNF-gamma-beta monoclonal antibodies.
One million cells, in 0.1 ml of FACS buffer (PBS, 0.1% BSA, 0.1% NaN3), were incubated with 0.1-1 microgram of protein or antibody at RT for 15 min. The cells were washed with 3 ml of FACS buffer, reacted with biotinylated primary antibody, and stained with PE-conjugated secondary antibody at RT for 15 min. Cells were then washed again, resuspended in 0.5 microgram/ml of propidium iodide, and live cells were gated and analyzed on a FACScan using the CellQuest software (BD Biosciences).

TNF-gamma-beta [8] = target: T1, TNF-gamma-beta; assay: Neutralization of TNF-gamma-beta induced SEAP production in TF-1/SRE reporter cells; assay type: cell-based; details: TNF-gamma-beta at 200 ng/mL, TF1/SRE reporter cells
Experimental: Briefly, a poly-D-lysine coated 96-well plate is seeded with TF-1/SRE-SEAP cells (in RPMI+0.2% Fetal bovine serum) at 75,000 cells per well. […] Again cells were incubated overnight. After overnight incubation, conditioned media were collected and SEAP activity was determined using the SEAP Reporter Gene Assay available from Roche Molecular Biochemicals (Indianapolis, Ind.) according to the manufacturer's directions. Briefly, Conditioned media were diluted 1:4 into dilution buffer. Samples were incubated at 65C for 30 minutes to eliminate contaminating AP activity usually present in culture medium. 25 microliters of the heat-inactivated samples were mixed with equal volume of inactivation buffer (containing a mixture of differential alkaline phosphatase inhibitors). Following a 5-minute incubation at room temperature, 50 uL of alkaline phosphatase substrate (CSPD) was added to each well. Chemiluminescence signal was read 10-15 minutes later using a luminometer.
These solutions were then incubated for 1 hour at room temperature. […] After the overnight incubation, the SEAP assay was performed as described above.
The premyeloid cell line TF-1 was stably transfected with SRE/SEAP (Signal Response Element/Secreted Alkaline Phosphatase) reporter plasmid that responds to the SRE signal transduction pathway.

WEHI 164 cells = assay: Measurement of apoptosis (nucleosome ELISA); assay type: cell-based, mouse; details: increasing amounts (FIG. 12)
Experimental: In a first incubation step, anti-histone antibody was fixed adsorptively on the wall of a microtiter plate module. Subsequently, non-specific binding sites on the wall were saturated by treatment with incubation buffer (e.g., blocking solution). During the second incubation step, the nucleosomes contained in the WEHI 164 cell sample treated with the TNF-alpha, TNF-beta or bacterially-produced TNF-gamma were bound via their histone components to the immobilized anti-histone antibody. In the third incubation step, anti-DNA-peroxidase (POD) reacted with the DNA component of the nucleosomes. After removal of all unbound peroxidase conjugate by a washing step, the amount of peroxidase retained in the immunocomplex was determined spectrophotometrically using the substrate ABTS (2,2′-azino-di-[3-ethylbenzthiazoline sulfonate]). Anti-histone antibody reacted with the histones H1, H2A, H2B, H3, and H4 from the sample. Anti-DNA POD antibody bound to single- and double-stranded DNA. Therefore, the ELISA allowed the detection of mono- and oligonucleosomes and may be applied to measure apoptotic cell death. The level of cell death was measured by the amount of cytoplasmic histone-associated DNA fragments which was indicated by the ratio of the absorbances observed at 405 and 490 nm (A405/A490). […]

FGF-2: angiogenic factor FGF-2 was tested, and the “EC50 value to stimulate in vitro angiogenesis” value [1] was “about 5 ng/ml” and the “concentration of maximum stimulatory effect on in vitro angiogenesis” value [1] was 10 ng/mL.

“DR3-Fc: recombinant receptor DR3-Fc fusion protein (Fc-extracellular domain of DR3) [reference compound]” was tested, and the “immunoprecipitation of TNF-gamma-beta” value (TNF-gamma-beta [2]) was “specifically interacted with FLAG-TNF-gamma-beta”, the “inhibition of TNF-gamma-beta-mediated IFNγ secretion” value (TNF-gamma-beta [3]) was “able to inhibit” and the “inhibition of TNF-gamma-beta activation of NF-κB” value (TNF-gamma-beta [4]) was “specifically inhibited”. For the same molecule, the “binding to HUVEC cells and PBMC” value ([5]; FACS) was “also binds to HUVEC cells and PBMC”, the “binding to TNF-gamma-transfected tumor cells (FACS shift)” value ([5]; MC-38/TNF-gamma cells) was “indicating cell-surface binding between TNF-gamma and DR3” and the “inhibition of TNF-gamma-beta induced caspase activation” value (TNF-gamma-beta [6]) was “inhibited by either DR3-Fc or TR6-Fc protein”. For the same molecule, the “binding to cells expressing TNF-gamma-beta (FACS)” value (TNF-gamma-beta [7]) was “bound efficiently”.

With “DR3.Fc: extracellular domain of human DR3 (aa 1-199) fused to the Fc domain of human IgG1” the “neutralization of TNF-gamma-beta SEAP activity by receptor-Fc” value (TNF-gamma-beta [8]) was “interacts with TNF-gamma-beta”, the “immunoprecipitation of TNF-gamma-beta” value (TNF-gamma-beta [2]) was “can be used to immunoprecipitate TNF-gamma-beta” and the “inhibition of TNF-gamma-beta activation of NF-κB” value (TNF-gamma-beta [4]) was “able to inhibit”.

B1: TNF-beta: tumor necrosis factor beta (lymphotoxin), control cytokine (protein, UniProt P01374 35-205, looked up)
Lymphotoxin-alpha: LPGVGLTPSAAQTARQHPKMHLAHSTLKPAAHLIGDPSKQNSLLWRANTDRAFLQDGFSLSNNSLLVPTSGIYFVYSQVVFSGKAYSPKATSSPLYLAHEVQLFSSQYPFHVPLLSSQKMVYPGLQEPWLHSMYHGAAFQLTQGDQLSTHTDGIPHLVLSPSTVFFGAFAL
In the case of B1, the “apoptosis (cytoplasmic histone-associated DNA fragments, A405/A490)” value (WEHI 164 cells) is reported as “also observed in the presence of increasing amounts”.
